Experimental data as given in article PMC10202812, “Resilience to autosomal dominant Alzheimer’s disease in a Reelin-COLBOS heterozygous man” (Nature Medicine, 2023).

Biological target: T1, neuropilin 1 (NRP1) (UniProt O14786 22-856, biotinylated at a 1:2 molar ratio)
T1 construct: neuropilin 1 (NRP1), recombinant, R&D Systems catalog no; 3870-N1-025; source: bought: R&D Systems (catalog no. 3870-N1-025)
T1 sequence (looked up): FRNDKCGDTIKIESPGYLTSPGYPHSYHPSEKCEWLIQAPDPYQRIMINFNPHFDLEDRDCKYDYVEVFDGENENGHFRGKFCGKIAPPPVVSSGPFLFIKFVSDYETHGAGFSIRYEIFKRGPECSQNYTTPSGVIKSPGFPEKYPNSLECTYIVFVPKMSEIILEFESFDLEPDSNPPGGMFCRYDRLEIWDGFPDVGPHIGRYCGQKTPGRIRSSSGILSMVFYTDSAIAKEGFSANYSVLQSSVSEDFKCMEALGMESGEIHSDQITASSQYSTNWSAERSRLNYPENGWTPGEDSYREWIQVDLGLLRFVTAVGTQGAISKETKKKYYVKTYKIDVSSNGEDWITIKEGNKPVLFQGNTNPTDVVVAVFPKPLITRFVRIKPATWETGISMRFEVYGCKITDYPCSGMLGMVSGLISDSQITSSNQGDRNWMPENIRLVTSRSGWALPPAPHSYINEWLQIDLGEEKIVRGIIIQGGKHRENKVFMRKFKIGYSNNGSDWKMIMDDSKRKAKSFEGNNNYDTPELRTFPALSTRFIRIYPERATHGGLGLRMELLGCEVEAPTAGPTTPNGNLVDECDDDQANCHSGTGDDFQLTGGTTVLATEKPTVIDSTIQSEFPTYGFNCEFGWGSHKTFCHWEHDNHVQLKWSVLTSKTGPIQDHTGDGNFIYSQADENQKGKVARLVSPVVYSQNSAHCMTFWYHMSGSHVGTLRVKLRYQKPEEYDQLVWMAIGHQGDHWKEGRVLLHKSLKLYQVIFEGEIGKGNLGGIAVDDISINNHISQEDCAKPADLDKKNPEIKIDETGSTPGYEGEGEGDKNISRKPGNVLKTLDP
Assay: BLI; biotinylated NRP1 immobilised on streptavidin biosensor tips (Octet); 30 °C, 1,000 rpm; 240 s association, 300 s dissociation; SD Buffer (PBS, 0.05% Tween 20, 0.01% BSA, pH 7.4); 1:1 binding model, global fitting
Details: both partners purified

B1: Fc-fusion CTR-RELN H3447R (CTR-RELN-COLBOS) (Fc fusion, human, UniProt P78509 3429-3460, looked up)
chain: STRKQNYMMNFSRQHGLRRFYNRRRRSLRRYP
notes: Reelin (RELN), C-terminal region, amino acids 3,429-3,460 (numbers of the 3,460-residue human protein), with the natural variant H3447R (COLBOS); source: DNA encoding amino acids 3,429-3,460 of RELN-CTR cloned into the pFUSEN-hG2Fc plasmid (InvivoGen)
  fold affinity against WT CTR-RELN: 10 fold
